Results published in patent US20250270315A1 (ELPISCIENCE SUZHOU BIOPHARMA, published 2025).
Where a chain is given by its changes, count along the chain named. Read-outs that look alike come from different tables or passages of the source. Blank lines part the entries; values can stand above or below the binder they belong to.

Key:
[1] = target: T1, human SIRPγ stably expressed on 293F cells (human, UniProt Q9P1W8 29-387); assay: FACS, 293F-hSIRPγ cells
T1 construct: whole, on cells
Excerpt: (§1) All the humanized antibodies as tested were confirmed to retain the similar activity as the parental antibody of 025c to bind to SIRP family members.

[2] = target: T2, human SIRPα v1 ECD recombinant protein (tag not given) (human, UniProt P78324 31-373); assay: competitive ELISA, mFc-CD47 ECD on coated SIRPα v1 ECD
T2 construct: extracellular domain; also called biotin labeled soluble human SIRPα v1 ECD recombinant protein; ELISA microplate coated human SIRPα v1 ECD
T2 sequence (P78324 31-373): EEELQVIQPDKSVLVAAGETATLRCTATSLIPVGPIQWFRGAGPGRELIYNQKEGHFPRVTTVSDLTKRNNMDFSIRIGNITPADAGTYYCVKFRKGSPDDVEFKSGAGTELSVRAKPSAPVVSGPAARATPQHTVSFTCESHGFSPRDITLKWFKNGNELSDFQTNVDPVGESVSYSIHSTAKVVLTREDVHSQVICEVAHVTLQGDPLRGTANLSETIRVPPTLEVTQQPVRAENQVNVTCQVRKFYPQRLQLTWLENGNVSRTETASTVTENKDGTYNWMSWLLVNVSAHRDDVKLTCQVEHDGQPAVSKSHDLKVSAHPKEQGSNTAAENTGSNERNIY
Procedure: (§2) Competitive ELISA assay was used to determine whether the purified chimeric antibodies can block CD47 and SIRPα interaction. Briefly, antibody and mFc tagged human CD47 ECD recombinant protein were co-incubated with ELISA microplate coated human SIRPα v1 ECD (FIGS. 6A and 6B) or human SIRPα v2 ECD (FIGS. 7A and 7B) recombinant protein. After washing, HRP labeled anti-mouse Fc 2nd antibody (Sigma) was added and incubated at 37° C. for 1 hour. Then, 100 μl/well of TMB solution (Biotechnology) was added. After incubation for 15 minutes at room temperature, the reaction was stopped by the addition of 50 μl of 1N HCl. OD 450 nm was read. Blocking ratio was determined by blockade of human CD47 ECD recombinant protein binding to ELISA microplate coated human SIRPα ECD recombinant protein. Other than 005, all antibodies as tested can block interaction between human CD47 and different human SIRPα variants.
(§3) The humanized antibodies were tested for the ability to block CD47 and SIRPα interaction with competitive ELISA assay (refer to methods described in Example 4.2.3.).

[3] = target: T3, full length human SIRPα v1 with a small beta-gal fragment (ED) fused to its C-terminal, expressed in K562 … (human, UniProt P78324 31-504); assay: cell-based or functional assay
T3 sequence (P78324 31-504): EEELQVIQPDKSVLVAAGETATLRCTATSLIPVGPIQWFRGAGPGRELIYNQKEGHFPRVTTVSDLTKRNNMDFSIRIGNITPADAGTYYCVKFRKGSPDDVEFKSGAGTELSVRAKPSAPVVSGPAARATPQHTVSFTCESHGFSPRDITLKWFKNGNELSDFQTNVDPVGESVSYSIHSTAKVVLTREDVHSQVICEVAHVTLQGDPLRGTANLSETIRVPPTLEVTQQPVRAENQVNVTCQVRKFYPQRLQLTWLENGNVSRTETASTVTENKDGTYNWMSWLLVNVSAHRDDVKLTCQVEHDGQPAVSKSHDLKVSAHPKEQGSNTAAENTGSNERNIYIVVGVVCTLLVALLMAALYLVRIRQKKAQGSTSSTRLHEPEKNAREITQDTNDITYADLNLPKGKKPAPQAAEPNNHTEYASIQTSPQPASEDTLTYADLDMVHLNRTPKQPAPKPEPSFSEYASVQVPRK

[4] = target: T4, human SIRPβ stably expressed on CHOK1 cells (human, UniProt O00241 30-398); assay: FACS, CHOK1-hSIRPβ cells (columns c6 and c7 read as swapped)
T4 construct: whole, on cells; also called CHOK1-human SIRPB; CHOK1-hSIRPβ
T4 sequence (O00241 30-398): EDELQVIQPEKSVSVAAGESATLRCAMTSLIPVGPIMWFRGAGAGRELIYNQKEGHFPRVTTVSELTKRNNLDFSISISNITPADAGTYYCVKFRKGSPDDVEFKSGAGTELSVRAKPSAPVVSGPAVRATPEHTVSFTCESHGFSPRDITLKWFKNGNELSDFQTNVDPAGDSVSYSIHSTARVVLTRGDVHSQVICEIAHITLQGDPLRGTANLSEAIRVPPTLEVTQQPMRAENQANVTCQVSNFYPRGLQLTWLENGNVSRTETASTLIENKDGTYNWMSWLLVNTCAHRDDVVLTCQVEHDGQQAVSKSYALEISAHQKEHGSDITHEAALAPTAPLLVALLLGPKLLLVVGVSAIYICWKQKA
Excerpt: as §1

[5] = target: T5, human SIRPα v2 ECD recombinant protein (tag not given) (human); assay: competitive ELISA, mFc-CD47 ECD on coated SIRPα v2 ECD
T5 construct: extracellular domain; also called ELISA microplate coated human SIRPα v2 ECD
Procedure: as §2, §3

[6] = target: T6, Human SIRPα v1 (antigen of the Octet and Biacore affinity measurements) (human, UniProt P78324 31-370, limits assumed); assay: SPR (Biacore), 1:1 binding model
T6 sequence (P78324 31-370 limits assumed): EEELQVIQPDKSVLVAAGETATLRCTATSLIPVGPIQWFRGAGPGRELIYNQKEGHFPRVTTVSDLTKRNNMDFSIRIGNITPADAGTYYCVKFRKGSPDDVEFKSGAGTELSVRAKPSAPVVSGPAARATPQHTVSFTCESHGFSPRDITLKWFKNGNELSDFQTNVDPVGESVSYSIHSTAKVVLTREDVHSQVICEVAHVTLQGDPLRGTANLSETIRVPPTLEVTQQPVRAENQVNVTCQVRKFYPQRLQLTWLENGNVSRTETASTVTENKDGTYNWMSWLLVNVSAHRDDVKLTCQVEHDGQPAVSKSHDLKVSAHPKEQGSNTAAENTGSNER
Procedure: (§4) The humanized antibodies were characterized for binding affinity against human SIRPα v1, human SIRPα v2 using Surface Plasmon Resonance technology (Biacore system). The association and dissociation curves were fit with 1:1 binding model, and the Ka/Kd/KD values for each antibody were calculated.

[7] = target: T4, human SIRPβ stably expressed on CHOK1 …; assay: FACS, CHOK1 cells stably expressing human SIRPβ
Excerpt: as §1

[8] = target: T7, full length human SIRPα v1 stably expressed on CHOK1 or 293F cells (human, UniProt P78324 31-504); assay: FACS, CHOK1-hSIRPα v1 cells
T7 construct: whole, on cells; also called CHOK1-human SIRPα v1; CHOK1-hSIRPα v1
T7 sequence (P78324 31-504): as the sequence (P78324 31-504) above
Excerpt: as §1

[9] = target: T7, full length human SIRPα v1 stably …; assay: competitive FACS, mFc-CD47 ECD on CHOK1-human SIRPα v1 cells
Procedure: Competitive FACS assay was also set up to further compare the blocking activity of the humanized antibodies and reference antibodies. Briefly antibody and mFc tagged human CD47 ECD recombinant protein were co-incubated with CHOK1 cells stably expressing human SIRPα v1 (FIG. 16A) or human SIRPα v2 (FIG. 16B). After washing, dye labeled anti-mouse Fc 2nd antibody (Sigma) was added and incubated at 37° C. for 1 hour. Fluorescence intensity was detected. Blocking ratio was determined by blockade of human CD47 ECD recombinant protein binding to SIRPα expressed CHOK1 cells. […] In particular, HEFLB doesn't work at all for human SIRPα v2.

[10] = target: T6, Human SIRPα v1 (antigen of the Octet …); assay: BLI (Octet), 1:1 binding model
Procedure: as §4, with “purified chimeric” for “humanized”, “Bio-Layer Interferometry” for “Surface Plasmon Resonance”, “(Octet” for “(Biacore”

[11] = target: T8, human SIRPβL ECD recombinant protein (6×His tagged) (human, UniProt Q5TFQ8 30-371); assay: ELISA, hSIRPβI ECD
T8 construct: given variously as SIRPBL, SIRPBI and SIRPβI; Bought from Biointron; also called human SIRPBL ECD; human SIRPBI ECD
T8 sequence (Q5TFQ8 30-371 limits assumed): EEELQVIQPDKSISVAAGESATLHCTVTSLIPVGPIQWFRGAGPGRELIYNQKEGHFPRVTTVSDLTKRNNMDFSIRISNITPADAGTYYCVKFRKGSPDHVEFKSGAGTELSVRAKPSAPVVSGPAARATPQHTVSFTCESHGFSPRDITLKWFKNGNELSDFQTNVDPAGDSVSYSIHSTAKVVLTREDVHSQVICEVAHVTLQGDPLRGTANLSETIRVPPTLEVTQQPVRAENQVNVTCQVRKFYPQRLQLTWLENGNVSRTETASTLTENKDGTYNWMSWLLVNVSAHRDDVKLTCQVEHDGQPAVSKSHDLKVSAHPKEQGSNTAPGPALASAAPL
Excerpt: (§5) Binding activity of the purified chimeric antibodies against SIRPβ and SIRPBI was detected by ELISA assay using recombinant proteins of human SIRPβ ECD (FIGS. 3A and 3B), human SIRPBI ECD (FIGS. 3D and 3E) and FACS assay using CHOK 1 cells stably expressing human SIRPB (FIG. 3C).

[12] = target: T2, human SIRPα v1 ECD recombinant protein …; assay: competitive ELISA, mFc-CD47 ECD on coated SIRPα v1 ECD; remark: listed apart in the source
Procedure: as §2

[13] = target: T7, full length human SIRPα v1 stably …; assay: FACS, CHOK1-hSIRPα v1 cells; remark: listed apart in the source
[14] = target: T3, full length human SIRPα v1 with a small …; assay: cell-based or functional assay; remark: listed apart in the source
[15] = target: T9, human SIRPβ ECD recombinant protein (6×His tagged) (human, UniProt O00241 30-371); assay: ELISA, hSIRPβ ECD
T9 construct: extracellular domain; Bought from Sino Biological; also called hSIRPβ ECD; not shown: 6×His tag
T9 sequence (O00241 30-371): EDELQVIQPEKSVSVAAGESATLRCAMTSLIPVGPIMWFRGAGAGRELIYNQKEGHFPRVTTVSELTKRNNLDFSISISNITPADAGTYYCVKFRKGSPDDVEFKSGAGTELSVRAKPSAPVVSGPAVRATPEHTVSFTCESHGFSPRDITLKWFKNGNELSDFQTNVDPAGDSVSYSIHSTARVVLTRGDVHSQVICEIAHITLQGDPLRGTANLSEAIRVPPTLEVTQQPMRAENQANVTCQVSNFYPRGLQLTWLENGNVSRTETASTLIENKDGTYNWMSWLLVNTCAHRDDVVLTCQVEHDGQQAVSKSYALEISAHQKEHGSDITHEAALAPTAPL
Excerpt: as §5

[16] = target: T5, human SIRPα v2 ECD recombinant protein …; assay: competitive ELISA, mFc-CD47 ECD on coated SIRPα v2 ECD; remark: listed apart in the source
Procedure: as §2

[17] = target: T10, C57BL/6 mouse SIRPα ECD recombinant protein (6×His tagged) (C57BL/6 mouse, UniProt P97797 32-373); assay: ELISA, recombinant C57BL/6 mouse SIRPα ECD
T10 construct: extracellular domain; Bought from Biointron; not shown: 6×His tag
T10 sequence (looked up): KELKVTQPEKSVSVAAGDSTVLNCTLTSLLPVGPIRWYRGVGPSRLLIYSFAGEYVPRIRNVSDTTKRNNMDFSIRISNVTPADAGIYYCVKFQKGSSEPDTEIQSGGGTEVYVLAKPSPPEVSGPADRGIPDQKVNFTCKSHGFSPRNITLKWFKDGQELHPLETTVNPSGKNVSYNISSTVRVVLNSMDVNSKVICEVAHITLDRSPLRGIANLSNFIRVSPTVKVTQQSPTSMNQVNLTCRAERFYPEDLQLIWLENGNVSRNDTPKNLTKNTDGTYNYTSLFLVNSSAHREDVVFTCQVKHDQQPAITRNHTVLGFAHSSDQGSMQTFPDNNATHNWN
Excerpt: Species cross reactivity of purified chimeric antibodies was detected by ELISA assay using recombinant protein of C57BL/6 mouse SIRPα ECD (FIG. 5A) and FACS assay using CHOK 1 cells stably expressing cyno SIRPα (FIGS. 5B and 5C). All antibodies as tested bind to cyno SIRPα at different levels but have no species cross reactivity against C57BL/6 mouse SIRPα.

T1 sequence (Q9P1W8 29-387): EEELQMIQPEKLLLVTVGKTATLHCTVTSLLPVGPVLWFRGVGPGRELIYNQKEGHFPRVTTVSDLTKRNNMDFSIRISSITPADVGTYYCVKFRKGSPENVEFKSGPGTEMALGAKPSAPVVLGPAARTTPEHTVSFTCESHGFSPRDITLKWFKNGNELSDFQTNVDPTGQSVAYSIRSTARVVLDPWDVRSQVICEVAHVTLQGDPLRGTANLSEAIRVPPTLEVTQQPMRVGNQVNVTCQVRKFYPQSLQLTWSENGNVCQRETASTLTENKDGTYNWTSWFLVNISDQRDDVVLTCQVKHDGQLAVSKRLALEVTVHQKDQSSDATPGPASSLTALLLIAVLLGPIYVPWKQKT

B1: hu025.021 (antibody, V domains shown)
VH: EVQLVQSGAEVKKPGATVKISCKVSGFNIKDYYMHWVQQAPGKGLEWIGRIDPEDAETKYAPKFQGRVTITADTSTNTAYMELSSLRSEDTAVYYCDRGLAYWGQGTLVTVSS
VL: EIVLTQSPATLSLSPGERATLSCSASSSVSSSYLYWYQQKPGQAPKLWIYSTSNLASGIPARFSGSGSGTDYTLTISSLEPEDFAVYYCHQWSSYPYTFGQGTKLEIK
notes: Humanized 025; also called hu025.21
- EC50 [1]: 210 pM
- TOP MFI [1]: 22100 MFI
- IC50 [2]: 2070 pM
- TOP blocking (%) [2]: 97.7%
- SHP-1 recruitment blocking, IC50 [3]: 100 pM
- SHP-1 recruitment blocking, TOP blocking (%) [3]: 86.3%
- EC50 [4]: 680 pM
- TOP MFI [4]: 72000 MFI
- IC50 [5]: 1960 pM
- TOP blocking (%) [5]: 98.3%
- Kd [6]: 3050 pM
- koff [6]: 0.00183 s⁻¹
- kon [6]: 599000 M⁻¹ s⁻¹
- EC50 (read off the curve) [7]: ~700 pM
- EC50 [8]: 1080 pM
- TOP MFI [8]: 56400 MFI

B4: hu025.060 (antibody, V domains shown)
VH: B1 VH with V24A
VL: B1 VL with Y72F
notes: Humanized 025; also called hu025.60
- EC50 [1]: 220 pM
- TOP MFI [1]: 22200 MFI
- IC50 [2]: 2150 pM
- TOP blocking (%) [2]: 95.2%
- SHP-1 recruitment blocking, IC50 [3]: 90 pM
- SHP-1 recruitment blocking, TOP blocking (%) [3]: 87.5%
- EC50 [4]: 750 pM
- TOP MFI [4]: 71200 MFI
- IC50 [5]: 1880 pM
- TOP blocking (%) [5]: 97%
- Kd [6]: 1990 pM
- koff [6]: 0.00111 s⁻¹
- kon [6]: 560000 M⁻¹ s⁻¹
- EC50 (read off the curve) [7]: ~700 pM
- EC50 [8]: 840 pM
- TOP MFI [8]: 61500 MFI
- IC50 [9]: 530 pM
- TOP blocking (%) [9]: 98.7%

B6: 071c (antibody, V domains shown)
VH: QIQLVQSGPELKKPGETVKISCKASGYTFTTYGMSWVKQAPGKGLKWMVWINTYSGVPTYADDFQGRFAFSLETSASTSYLQINNLRNEDTATYFCARDPHYYGTSPAWFAYWGQGTLVTVSA
VL: DIVMTQSQKFMSTTIGDRVIITCKASQIVGIAVAWYQQKPGQSPKLLIYSASNRFTGVPDRFTGSGSGTDFTLTISNMQSEDLADYFCQQYSTYPFTFGSGTKLEIK
notes: also called chimeric antibody 071c
- Kd [10]: 5970 pM
- koff [10]: 0.00327 s⁻¹
- kon [10]: 548000 M⁻¹ s⁻¹
- EC50 [11]: 300 pM
- TOP OD450 [11]: 2.66 OD450
- IC50 [12]: 2860 pM
- TOP blocking (%) [12]: 94.1%
- EC50 [13]: 2600 pM
- TOP MFI [13]: 76500 MFI
- SHP-1 recruitment blocking, IC50 [14]: 2970 pM
- SHP-1 recruitment blocking, TOP blocking (%) [14]: 44.5%
- EC50 [15]: 1530 pM
- TOP OD450 [15]: 2.98 OD450
- IC50 [16]: 5100 pM
- TOP blocking (%) [16]: 76.3%
- binding result [17]: no binding

Other lines, results leading:

- EC50 [1]: 210 pM
- TOP MFI [1]: 20900 MFI
- IC50 [2]: 2220 pM
- TOP blocking (%) [2]: 97.2%
- SHP-1 recruitment blocking, IC50 [3]: 190 pM
- SHP-1 recruitment blocking, TOP blocking (%) [3]: 84.5%
- EC50 [4]: 800 pM
- TOP MFI [4]: 69700 MFI
- IC50 [5]: 1880 pM
- TOP blocking (%) [5]: 98.3%
- EC50 (read off the curve) [7]: ~700 pM
- EC50 [8]: 990 pM
- TOP MFI [8]: 53800 MFI
B2: hu025.033 (antibody, V domains shown)
VH: B1 VH with N77D
VL: B1 VL
notes: Humanized 025

- EC50 [1]: 200 pM
- TOP MFI [1]: 22400 MFI
- IC50 [2]: 2600 pM
- TOP blocking (%) [2]: 97.2%
- SHP-1 recruitment blocking, IC50 [3]: 100 pM
- SHP-1 recruitment blocking, TOP blocking (%) [3]: 85.5%
- EC50 [4]: 660 pM
- TOP MFI [4]: 72800 MFI
- IC50 [5]: 2070 pM
- TOP blocking (%) [5]: 98%
- Kd [6]: 2670 pM
- koff [6]: 0.00172 s⁻¹
- kon [6]: 643000 M⁻¹ s⁻¹
- EC50 (read off the curve) [7]: ~700 pM
- EC50 [8]: 1130 pM
- TOP MFI [8]: 57800 MFI
- IC50 [9]: 570 pM
- TOP blocking (%) [9]: 97.7%
B3: hu025.023 (antibody, V domains shown)
VH: B1 VH
VL: B1 VL with Y72F
notes: Humanized 025; also called hu025.23

- EC50 [1]: 200 pM
- TOP MFI [1]: 22700 MFI
- IC50 [2]: 2480 pM
- TOP blocking (%) [2]: 97.1%
- SHP-1 recruitment blocking, IC50 [3]: 100 pM
- SHP-1 recruitment blocking, TOP blocking (%) [3]: 78.8%
- EC50 [4]: 670 pM
- TOP MFI [4]: 73100 MFI
- IC50 [5]: 2030 pM
- TOP blocking (%) [5]: 98.3%
- Kd [6]: 2290 pM
- koff [6]: 0.00123 s⁻¹
- kon [6]: 536000 M⁻¹ s⁻¹
- EC50 (read off the curve) [7]: ~700 pM
- EC50 [8]: 1050 pM
- TOP MFI [8]: 59400 MFI
B5: hu025.059 (antibody, V domains shown)
VH: B1 VH with V24A
VL: B1 VL
notes: Humanized 025; also called hu025.59
